Patent US20130336947

How the values were obtained:
[1] = tested on: ZF11xHunt-Kox-1 (Artificial); assay: cell_activity
[2] = tested on: ZF6xHunt-Kox-1 (Artificial); assay: cell_activity; settings: htt mRNA (up to 2.5-fold); protein up to 2-fold; STHdh Q111/Q111, 20 days
Chain of ZF6xHunt-Kox-1 (Artificial) (chain, as listed by the source): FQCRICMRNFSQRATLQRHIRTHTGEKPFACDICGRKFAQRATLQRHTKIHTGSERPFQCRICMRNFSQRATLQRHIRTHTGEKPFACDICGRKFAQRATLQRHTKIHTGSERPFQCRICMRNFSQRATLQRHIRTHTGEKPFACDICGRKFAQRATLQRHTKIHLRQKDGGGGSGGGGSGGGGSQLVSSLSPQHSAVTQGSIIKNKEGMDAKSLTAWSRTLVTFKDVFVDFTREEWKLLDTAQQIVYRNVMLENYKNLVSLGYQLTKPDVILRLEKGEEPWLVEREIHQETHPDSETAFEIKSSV

Chain of ZF11xHunt-Kox-1 (Artificial) (chain, as listed by the source): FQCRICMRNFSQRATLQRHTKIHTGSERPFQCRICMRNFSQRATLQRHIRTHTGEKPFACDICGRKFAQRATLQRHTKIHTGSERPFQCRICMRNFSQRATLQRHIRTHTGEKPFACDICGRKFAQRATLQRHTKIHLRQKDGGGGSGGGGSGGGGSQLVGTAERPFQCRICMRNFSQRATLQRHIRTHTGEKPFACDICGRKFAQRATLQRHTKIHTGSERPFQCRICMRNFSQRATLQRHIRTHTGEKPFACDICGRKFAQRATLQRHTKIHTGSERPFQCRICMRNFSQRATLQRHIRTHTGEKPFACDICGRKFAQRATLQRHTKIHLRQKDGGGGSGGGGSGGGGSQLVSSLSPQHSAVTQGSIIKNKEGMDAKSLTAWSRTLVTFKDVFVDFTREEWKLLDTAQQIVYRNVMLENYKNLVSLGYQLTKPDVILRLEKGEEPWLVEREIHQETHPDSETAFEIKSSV

| Substance | activity (% mRNA reduction) ([1]; AAV2/1 striatal delivery, R6/2 mice, week 6, average) | activity (% mRNA reduction) ([1]; protein reduced 95%, STHdh Q111/Q111, 20 days) | activity (fold repression) [2] |
| --- | --- | --- | --- |
| R6/2 mutant HTT transgene | > 45 | – | – |
| STHdh Q111 mutant htt locus | – | 80 | < 2.5 |
